Results from US20200121775A1.

Molecular target: HLA A02:01 class I molecule with β2-microglobulin (human)
Experiment: REVEAL MHC class I binding/stabilization assay (ProImmune)

positive control peptide (REVEAL assay) was tested, and the REVEAL Score was 100 score.
